What all share (experiment): solid-phase binding assay
The target of test [1] is alpha-dystroglycan from dystrophin-deficient (mdx) mouse heart (mouse (endogenous in heart)) (UniProt Q62165).
Test [2] addresses alpha-dystroglycan from dystrophin/utrophin-deficient (dko) mouse heart (mouse (endogenous in heart)) (UniProt Q62165).
Test [3] addresses alpha-dystroglycan from wild-type (C57BL/10) mouse heart (mouse (endogenous in heart)) (UniProt Q62165).

The term Kd denotes the constant that tells how readily two partners part at equilibrium. Read a high Kd as a looser complex. Regarding “Engelbreth-Holm-Swarm (EHS) laminin (from UniProt P19137 25-3083; P02469 22-1786; P02468 34-1607) (complex)”, the Kd is 33 nM in test [1], 18.8 nM in test [2] and 21.2 nM in test [3].

For the origin of these results see publication PMC3915414.
